Experiments:
Experiment in all cases: holdup assay
Set-up in all cases: key: below the threshold = too weak to quantify, mostly under pKd 3.1 to 4
[1] = target: FRMPD2_2, Q68DX3
[2] = target: PARD3_3, Q8TEW0
[3] = target: T1, APBA2_2, Q99767
T1 sequence (Q99767 654-744, limits assumed, looked up): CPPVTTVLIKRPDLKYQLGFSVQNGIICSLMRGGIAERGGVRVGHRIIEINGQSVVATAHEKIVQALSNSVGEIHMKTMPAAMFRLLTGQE

[4] = target: DLG2_2, Q15700
[5] = target: T2, NHERF3_1, Q5T2W1
T2 sequence (Q5T2W1 4-100, limits assumed, looked up): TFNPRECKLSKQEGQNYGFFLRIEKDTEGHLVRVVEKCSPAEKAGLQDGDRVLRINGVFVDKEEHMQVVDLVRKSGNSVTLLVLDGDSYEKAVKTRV

[6] = target: TJP1_2, Q07157
[7] = target: T3, DLG3_2, Q92796
T3 sequence (Q92796 221-321, limits assumed, looked up): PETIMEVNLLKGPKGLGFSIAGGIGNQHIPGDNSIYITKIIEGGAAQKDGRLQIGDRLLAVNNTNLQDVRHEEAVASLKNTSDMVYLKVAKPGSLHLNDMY

[8] = target: T4, TX1BP3, O14907
T4 sequence (O14907 10-122, limits assumed, looked up): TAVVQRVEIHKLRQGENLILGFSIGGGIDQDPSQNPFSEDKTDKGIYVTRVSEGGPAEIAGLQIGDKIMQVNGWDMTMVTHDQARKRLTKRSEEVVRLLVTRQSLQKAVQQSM

[9] = target: GIPC2, Q8TF65
[10] = target: SCRIB_2, Q14160
[11] = target: GRIP2_5, Q9C0E4
[12] = target: T5, NHERF3_4, Q5T2W1
T5 sequence (Q5T2W1 373-468, limits assumed, looked up): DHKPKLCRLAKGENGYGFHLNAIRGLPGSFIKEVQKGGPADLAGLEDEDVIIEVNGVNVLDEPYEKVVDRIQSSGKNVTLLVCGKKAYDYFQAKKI

[13] = target: T6, LIN7C, Q9NUP9
T6 sequence (Q9NUP9 88-185, limits assumed, looked up): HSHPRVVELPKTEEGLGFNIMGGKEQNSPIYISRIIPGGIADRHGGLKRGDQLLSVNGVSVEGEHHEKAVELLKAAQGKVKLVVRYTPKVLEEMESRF

[14] = target: DLG2_3, Q15700
[15] = target: T7, MPDZ_5, O75970
T7 sequence (O75970 695-796, limits assumed, looked up): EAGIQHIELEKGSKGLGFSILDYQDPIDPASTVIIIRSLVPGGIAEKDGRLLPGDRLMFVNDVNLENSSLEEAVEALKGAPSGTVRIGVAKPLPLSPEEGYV

[16] = target: T8, SNTA1, Q13424
T8 sequence (Q13424 82-180, limits assumed, looked up): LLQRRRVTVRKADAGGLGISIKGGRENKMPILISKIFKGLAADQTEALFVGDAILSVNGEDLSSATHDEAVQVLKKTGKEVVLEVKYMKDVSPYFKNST

[17] = target: T9, MPP6, Q9NZW5
T9 sequence (Q9NZW5 125-219, limits assumed, looked up): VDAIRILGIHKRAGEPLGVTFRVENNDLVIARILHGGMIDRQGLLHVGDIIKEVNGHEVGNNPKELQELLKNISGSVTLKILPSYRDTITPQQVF

[18] = target: T10, SNTG1, Q9NSN8
T10 sequence (Q9NSN8 52-150, limits assumed, looked up): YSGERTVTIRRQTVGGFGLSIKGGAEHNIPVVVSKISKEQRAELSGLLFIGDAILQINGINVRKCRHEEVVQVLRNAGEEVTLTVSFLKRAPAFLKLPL

[19] = target: T11, PDZD7_3, Q9H5P4
T11 sequence (Q9H5P4 857-944, limits assumed, looked up): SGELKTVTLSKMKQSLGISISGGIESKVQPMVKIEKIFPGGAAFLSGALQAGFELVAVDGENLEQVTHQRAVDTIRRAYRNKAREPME

[20] = target: GRIP2_7, Q9C0E4
[21] = target: T12, GRIP1_3, Q9Y3R0
T12 sequence (Q9Y3R0 247-346, limits assumed, looked up): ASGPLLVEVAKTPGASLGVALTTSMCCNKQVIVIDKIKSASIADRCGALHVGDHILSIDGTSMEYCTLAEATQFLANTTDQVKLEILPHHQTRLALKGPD

[22] = target: T13, SNTB1, Q13884
T13 sequence (Q13884 107-205, limits assumed, looked up): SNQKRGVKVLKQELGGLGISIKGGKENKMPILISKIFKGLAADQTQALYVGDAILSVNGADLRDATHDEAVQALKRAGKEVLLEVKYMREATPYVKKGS

[23] = target: LNX1_2, Q8TBB1
[24] = target: Inadl_8, Q8NI35
[25] = target: DLG1_2, Q12959
[26] = plain residues with an end cap or a label only (N-terminal biotin on a linker: ahx)
[27] = plain residues with an end cap or a label only (N-terminal biotin on a linker: ttds)

Sequence of Inadl_8, Q8NI35 (Q8NI35 1425-1530): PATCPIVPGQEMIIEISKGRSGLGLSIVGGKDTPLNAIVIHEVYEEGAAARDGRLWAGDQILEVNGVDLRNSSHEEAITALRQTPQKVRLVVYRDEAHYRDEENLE
Sequence of TJP1_2, Q07157 (Q07157 181-274): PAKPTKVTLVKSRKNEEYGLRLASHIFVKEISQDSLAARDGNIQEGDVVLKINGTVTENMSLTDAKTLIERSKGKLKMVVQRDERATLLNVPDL
Sequence of GIPC2, Q8TF65 (Q8TF65 112-203): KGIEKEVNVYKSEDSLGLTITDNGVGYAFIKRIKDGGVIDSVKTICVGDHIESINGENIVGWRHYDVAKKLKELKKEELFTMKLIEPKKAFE
Sequence of GRIP2_7, Q9C0E4 (Q9C0E4 934-1023): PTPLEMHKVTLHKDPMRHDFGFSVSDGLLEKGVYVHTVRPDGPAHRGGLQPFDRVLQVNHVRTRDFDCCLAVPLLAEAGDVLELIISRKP
Sequence of SCRIB_2, Q14160 (Q14160 857-960): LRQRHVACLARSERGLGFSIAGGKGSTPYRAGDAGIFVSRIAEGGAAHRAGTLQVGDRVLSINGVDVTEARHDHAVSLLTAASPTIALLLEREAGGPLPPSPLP
Sequence of LNX1_2, Q8TBB1 (Q8TBB1 371-470): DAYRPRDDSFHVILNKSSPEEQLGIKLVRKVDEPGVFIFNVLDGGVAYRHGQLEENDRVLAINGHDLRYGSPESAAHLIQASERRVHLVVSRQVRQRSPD
Sequence of DLG1_2, Q12959 (Q12959 314-412): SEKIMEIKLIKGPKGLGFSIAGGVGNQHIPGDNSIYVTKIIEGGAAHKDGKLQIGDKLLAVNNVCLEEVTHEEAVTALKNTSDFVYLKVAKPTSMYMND
Sequence of PARD3_3, Q8TEW0 (Q8TEW0 582-685): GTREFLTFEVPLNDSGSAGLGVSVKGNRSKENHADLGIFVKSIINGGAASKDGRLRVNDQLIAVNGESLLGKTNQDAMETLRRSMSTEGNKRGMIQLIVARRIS
Sequence of FRMPD2_2, Q68DX3 (Q68DX3 944-1038): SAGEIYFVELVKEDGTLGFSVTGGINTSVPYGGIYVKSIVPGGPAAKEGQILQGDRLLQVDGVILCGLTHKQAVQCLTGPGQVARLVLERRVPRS
Sequence of GRIP2_5, Q9C0E4 (Q9C0E4 544-642): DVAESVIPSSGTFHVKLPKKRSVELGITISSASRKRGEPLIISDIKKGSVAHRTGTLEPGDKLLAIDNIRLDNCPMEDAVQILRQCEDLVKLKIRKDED

With SAPATLSSRA [PDLIM2, Q96JY6] the pKd [1, 26] was “below the threshold”, the pKd [2, 26] was “below the threshold” and the pKd [3, 26] was “below the threshold”. For the same binder, the pKd [4, 26] was “below the threshold”, the pKd [5, 26] was “below the threshold” and the pKd [6, 26] was “below the threshold”. For the same binder, the pKd [7, 26] was “below the threshold”, the pKd [8, 26] was “below the threshold” and the pKd [9, 26] was “below the threshold”. For the same binder, the pKd [10, 26] was “below the threshold”, the pKd [11, 26] was “below the threshold” and the pKd [12, 26] was “below the threshold”. The pKd [13, 26] was “below the threshold”, the pKd [14, 26] was “below the threshold” and the pKd [15, 26] was “below the threshold”. For the same binder, the pKd [16, 26] was “below the threshold”, the pKd [17, 26] was “below the threshold” and the pKd [18, 26] was “below the threshold”. The pKd [19, 26] was “below the threshold”, the pKd [20, 26] was “below the threshold” and the pKd [21, 26] was “below the threshold”. The pKd [22, 26] was “below the threshold”, the pKd [23, 26] was “below the threshold” and the pKd [24, 26] was “below the threshold”. The pKd [25, 26] was “below the threshold”.

For SGGKRKETLV [NET1, Q7Z628], the pKd [1, 27] was 3.67, the pKd [2, 27] was “below the threshold” and the pKd [3, 27] was “below the threshold”. The pKd [4, 27] was 5.26, the pKd [5, 27] was 4.35 and the pKd [6, 27] was “below the threshold”. The pKd [7, 27] was 5.43, the pKd [8, 27] was 4.44 and the pKd [9, 27] was “below the threshold”. For the same binder, the pKd [10, 27] was 3.54, the pKd [11, 27] was “below the threshold” and the pKd [12, 27] was “below the threshold”. The pKd [13, 27] was 4.4, the pKd [14, 27] was 5.21 and the pKd [15, 27] was “below the threshold”. The pKd [16, 27] was 4.25, the pKd [17, 27] was “below the threshold” and the pKd [18, 27] was 3.83. For the same binder, the pKd [19, 27] was 4.54, the pKd [20, 27] was “below the threshold” and the pKd [21, 27] was “below the threshold”. It also gave a pKd [22, 27] of 4.56, a pKd [23, 27] of 3.62 and a pKd [24, 27] of 3.63. It also gave a pKd [25, 27] of 5.78.

In the case of ADENEQVSAV [RAPGEF6, Q8TEU7], the pKd [1, 26] is reported as 4.85, the pKd [2, 26] is reported as “below the threshold” and the pKd [3, 26] is reported as “below the threshold”. The pKd [4, 26] was 3.57, the pKd [5, 26] was 3.53 and the pKd [6, 26] was “below the threshold”. For the same binder, the pKd [7, 26] was 4, the pKd [8, 26] was “below the threshold” and the pKd [9, 26] was “below the threshold”. For the same binder, the pKd [10, 26] was “below the threshold”, the pKd [11, 26] was “below the threshold” and the pKd [12, 26] was “below the threshold”. The pKd [13, 26] was “below the threshold”, the pKd [14, 26] was 3.63 and the pKd [15, 26] was “below the threshold”. For the same binder, the pKd [16, 26] was 3.64, the pKd [17, 26] was “below the threshold” and the pKd [18, 26] was 4.07. For the same binder, the pKd [19, 26] was 3.83, the pKd [20, 26] was “below the threshold” and the pKd [21, 26] was “below the threshold”. For the same binder, the pKd [22, 26] was 3.71, the pKd [23, 26] was “below the threshold” and the pKd [24, 26] was 3.86. It also gave a pKd [25, 26] of 4.01.
